B1: MON-HT1: engineered oxygenase protein, amino acid sequence SEQ ID NO:14 (protein)
chain: MHAALTPLTNKYRFIDVQPLTGVLGAEITGVDLREPLDDSTWNEILDAFHTYQVIYFPGQAITNEQHIAFSRRFGPVDPVPILKSIEGYPEVQMIRREANESSRFIGDDWHTDSTFLDAPPAAVVMRAIEVPEYGGDTGFLSMYSAWETLSPTMQATIEGLNVVHSATKVFGSLYQATNWRFSNTSVKVMDVDAGDRETVHPLVVTHPVTGRRALYCNQVYCQKIQGMTDAESKSLLQFLYEHATKFDFTCRVRWKKDQVLVWDNLCTMHRAVPDYAGKFRYLTRTTVAGDKPSR
B2: MON-HT2: engineered oxygenase protein, amino acid sequence SEQ ID NO:18 (protein)
chain: MHAALTPLTNKYRFIDVQPLTGVLGAEITGVDLREPLDDSTWNEILDAFHTYQVIYFPGQAITNEQHIAFSRRFGPVDPVPLLKSIEGYPEVQMIRREANESSRVIGDDWHSDSTFLDAPPAAVVMRAIEVPEYGGDTGFLSMYSAWETLSPTMQATIEGLNVVHSATKVFGSLYQATNWRFSNTSVKVMDVDAGDRETVHPLVVTHPVTGRRALYCNQVYCQKIQGMTDAESKSLLQFLYEHATKFDFTCRVRWKKDQVLVWDNLCTMHRAAPDYAGKFRYLTRTTVAGDKPSR

Legend:
[1] = format: physicochemical; conditions: for T1/2, temperature where 50% of the protein was unfolded, Buffer: pH 7.5
Outline: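 Thermal shift assay: purified enzyme in 30 mM Tris pH7.5, 150 mM NaCl, with or without 50 uM Fe2+ and 1.0 mM aKG. Unfolding followed by SYPRO orange fluorescence from 10° C. to 95° C. in 0.5° C. steps; melting temperature (T1/2) taken from the curve.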

[2] = enzyme activity assay at 23° C. with purified enzyme; format: biochemical; conditions: wild-type set at 100%
Experimental: The enzyme activity of MON-HT protein variants with haloxyfop, fenoxaprop, fluazifop, and dichlorprop as substrates was determined using the enzyme activity assay conducted at 23° C. with purified enzyme. The activity was recorded as the maximum activity as a percentage of the wild-type enzyme's activity, which was set at 100%.

transgenic maize plants = assay: trait efficacy field trials with homozygous inbred plants, CTP evaluation; format: in vivo; conditions: crop injury percentage
From the text: To evaluate different chloroplast targeting peptides (CTP), plant transformation vectors were constructed, each comprising a recombinant DNA molecule optimized for monocot expression and encoding MON-HTI (SEQ ID NO: 16), MON-HT2 (SEQ ID NO:20), and MON-HT8 (SEQ ID NO:39), MON-HT9 (SEQ ID NO:42), or MON-HT10 (SEQ ID NO:45). The vectors were created using the same combination of promoter, leader, intron, and 3′-UTR, but with one of three separate CTPs (A, B, or C) or without a CTP operably linked to the protein-coding sequence. The DNA constructs were used to transform immature maize (LH244) embryos using Agrobacterium tumifaciens and standard methods known in the art. Regenerated RO transgenic plantlets were grown in the green house. The R0 plants were selfed to generate R1 homozygous seed. The R0 plants were also used as the male to cross with inbred plants containing maize event MON89034 to generate segregating F1 hybrid seed for trait efficacy field trials.
Separate trait efficacy field trials for quizalofop-P and 2,4-D were conducted at two locations each with the homozygous inbred transgenic plants (R2 or R4 generation). In these field trials, one of two herbicide treatments was used: (1) quizalofop-P (Assure II) at 0.16 lb ai/acre (2×) plus 0.25% v/v non-ionic surfactant (NIS) applied at V4 growth stage followed by the same at V8 growth stage; or (2) 2,4-D amine at 2 lb ae/acre (2×) plus 0.25% v/v non-ionic surfactant (NIS) applied to V4 followed by V8. Injury ratings (crop injury percentage at V4 (CIPV4) or V8 (CIPV8)) were taken 10 to 14 days after the V4 and V8 applications. Error was calculated using LSD (0.05).

F1 hybrid maize plants = assay: efficacy field trial for 2,4-D tolerance; format: in vivo; conditions: for average injury rating, V4 Growth Stage, 2x 2,4-D / average injury rating, V8 Growth Stage, 2x 2,4-D / average injury rating, V4 Growth Stage, 4x 2,4-D / average injury rating, V8 Growth Stage, 4x 2,4-D / average injury rating, V4 Growth Stage, 8x 2,4-D / average injury rating, V8 Growth Stage, 8x 2,4-D / average injury rating, V4 Growth Stage, 16x 2,4-D / average injury rating, V8 Growth Stage, 16x 2,4-D: scale 0 to 100, with CTP unless label says no CTP; for average injury rating, V4 Growth Stage, 2x 2,4-D / average injury rating, V8 Growth Stage, 2x 2,4-D: 2 lb ae/acre at VE-V2, V4, V8; for average injury rating, V4 Growth Stage, 4x 2,4-D / average injury rating, V8 Growth Stage, 4x 2,4-D: 4 lb ae/acre at VE-V2, V4, V8; for average injury rating, V4 Growth Stage, 8x 2,4-D / average injury rating, V8 Growth Stage, 8x 2,4-D: 8 lb ae/acre at VE-V2, V4, V8; for average injury rating, V4 Growth Stage, 16x 2,4-D / average injury rating, V8 Growth Stage, 16x 2,4-D: 16 lb ae/acre at VE-V2, V4, V8
Experimental: Separate trait efficacy field trials for quizalofop-P and 2,4-D were conducted at two locations cach with F1 hybrid transgenic plants produced by crossing an inbred plant containing maize event MON89034 with an R1 plant containing MON-HT55 (with a CTP), MON-HTI (with or without a CTP), MON-HT2 (with or without a CTP), MON-HT3 (with a CTP), MON-HT4 (with a CTP), MON-HT5 (with a CTP), MON-HT6 (with a CTP), or MON-HT7 (with a CTP). Transgenic F1 hybrid plants containing maize events NK603×MON89034 were used for comparison as a control.
In the efficacy field trial for 2,4-D tolerance, one of four herbicide treatments was used: (1) 2,4-D amine at 2 lb ac/acre (2×) plus 0.25% v/v non-ionic surfactant (NIS) applied to VE to V2 followed by V4 followed by V8; (2) 2,4-D amine at 4 lb ac/acre (4×) plus 0.25% v/v NIS applied to VE to V2 followed by V4 followed by V8; (3) 2,4-D amine at 8 lb ac/acre (8×) plus 0.25% v/v NIS applied to VE to V2 followed by V4 followed by V8 maize; or (4) 2,4-D amine at 16 lb ac/acre (16×) plus 0.25% v/v NIS applied to VE to V2 followed by V4 followed by V8. Plots were visually rated as above. Tables 14 and 15 show the average injury ratings after herbicide application at V4 or V8 growth stage, respectively.

[3] = CTP A, 0.16 lb ai/acre at V4, V8, LSD (0.05) = 1.45
[4] = CTP A, 0.16 lb ai/acre at V4, V8, LSD (0.05) = 2.2
[5] = CTP A, 2 lb ae/acre at V4, V8, LSD (0.05) = 0.95
[6] = CTP A, 2 lb ae/acre at V4, V8, LSD (0.05) = 1.6
[7] = CTP B, 0.16 lb ai/acre at V4, V8
[8] = CTP C, 0.16 lb ai/acre at V4, V8
[9] = no CTP, 0.16 lb ai/acre at V4, V8

Molecule | T1/2, temperature where 50% of the protein was unfolded, Buffer plus Fe2+ and aKG [1] [°C] | T1/2, temperature where 50% of the protein was unfolded, Buffer [1] [°C] | 2X Quizalofop-P CIPV4 (transgenic maize plants; [3]) | 2X Quizalofop-P CIPV8 (transgenic maize plants; [4]) | 2X 2,4-D CIPV4 (transgenic maize plants; [5]) | 2X 2,4-D CIPV8 (transgenic maize plants; [6]) | 2X Quizalofop-P CIPV4 (transgenic maize plants; [7]) | 2X Quizalofop-P CIPV8 (transgenic maize plants; [7]) | 2X 2,4-D CIPV4 (transgenic maize plants; CTP B, 2 lb ae/acre at V4, V8) | 2X 2,4-D CIPV8 (transgenic maize plants; CTP B, 2 lb ae/acre at V4, V8) | 2X Quizalofop-P CIPV4 (transgenic maize plants; [8]) | 2X Quizalofop-P CIPV8 (transgenic maize plants; [8]) | 2X 2,4-D CIPV4 (transgenic maize plants; CTP C, 2 lb ae/acre at V4, V8) | 2X 2,4-D CIPV8 (transgenic maize plants; CTP C, 2 lb ae/acre at V4, V8) | 2X Quizalofop-P CIPV4 (transgenic maize plants; [9]) | 2X Quizalofop-P CIPV8 (transgenic maize plants; [9]) | 2X 2,4-D CIPV4 (transgenic maize plants; no CTP, 2 lb ae/acre at V4, V8) | 2X 2,4-D CIPV8 (transgenic maize plants; no CTP, 2 lb ae/acre at V4, V8) | average injury rating, V4 Growth Stage, 2x 2,4-D (F1 hybrid maize plants) | average injury rating, V8 Growth Stage, 2x 2,4-D (F1 hybrid maize plants) | also measured
B1 | 59 | 56 | 0 | 2.125 | 0 | 2.5 | 0 | 1.75 | 0 | 1.25 | 0 | 1.75 | 1.25 | 1.25 | 0 | 1.25 | 0 | 1.25 | 0.0 | 1.3 | Melting temp, Buffer ([1]; Table 11 series): 58 °C; Melting temp, Buffer plus Fe2+ and aKG ([1]; Table 11 series): 62 °C; maximum activity as a percentage of the wild-type enzyme's activity, Fluazifop [2]: 67%; average injury rating, V8 Growth Stage, 2x 2,4-D (F1 hybrid maize plants; listed as MON-HT1 (no CTP)): 2.5; average injury rating, V4 Growth Stage, 4x 2,4-D (F1 hybrid maize plants): 0.0; average injury rating, V8 Growth Stage, 4x 2,4-D (F1 hybrid maize plants): 1.5; average injury rating, V8 Growth Stage, 4x 2,4-D (F1 hybrid maize plants; listed as MON-HT1 (no CTP)): 4.0; average injury rating, V4 Growth Stage, 8x 2,4-D (F1 hybrid maize plants): 5.0; average injury rating, V8 Growth Stage, 8x 2,4-D (F1 hybrid maize plants): 8.3; average injury rating, V4 Growth Stage, 8x 2,4-D (F1 hybrid maize plants; listed as MON-HT1 (no CTP)): 5.8; average injury rating, V8 Growth Stage, 8x 2,4-D (F1 hybrid maize plants; listed as MON-HT1 (no CTP)): 8.8; average injury rating, V4 Growth Stage, 16x 2,4-D (F1 hybrid maize plants): 6.3; average injury rating, V8 Growth Stage, 16x 2,4-D (F1 hybrid maize plants): 16.3; average injury rating, V4 Growth Stage, 16x 2,4-D (F1 hybrid maize plants; listed as MON-HT1 (no CTP)): 12.5; average injury rating, V8 Growth Stage, 16x 2,4-D (F1 hybrid maize plants; listed as MON-HT1 (no CTP)): 13.8
B2 | 58 | 55 | 0 | 1.875 | 0.875 | 1.25 | 0 | 0 | 0 | 2.5 | 0 | 2 | 0 | 1.25 | 1.25 | 3.5 | 0 | 2.5 | 1.3 | 2.5 | maximum activity as a percentage of the wild-type enzyme's activity, Dichlorprop [2]: 92%; average injury rating, V8 Growth Stage, 2x 2,4-D (F1 hybrid maize plants; listed as MON-HT2 (no CTP)): 5.0; average injury rating, V4 Growth Stage, 4x 2,4-D (F1 hybrid maize plants): 0.0; average injury rating, V8 Growth Stage, 4x 2,4-D (F1 hybrid maize plants): 3.3; average injury rating, V4 Growth Stage, 4x 2,4-D (F1 hybrid maize plants; listed as MON-HT2 (no CTP)): 2.5; average injury rating, V8 Growth Stage, 4x 2,4-D (F1 hybrid maize plants; listed as MON-HT2 (no CTP)): 8.8; average injury rating, V4 Growth Stage, 8x 2,4-D (F1 hybrid maize plants): 4.5; average injury rating, V8 Growth Stage, 8x 2,4-D (F1 hybrid maize plants): 10.0; average injury rating, V4 Growth Stage, 8x 2,4-D (F1 hybrid maize plants; listed as MON-HT2 (no CTP)): 13.8; average injury rating, V8 Growth Stage, 8x 2,4-D (F1 hybrid maize plants; listed as MON-HT2 (no CTP)): 13.8; average injury rating, V4 Growth Stage, 16x 2,4-D (F1 hybrid maize plants): 7.5; average injury rating, V8 Growth Stage, 16x 2,4-D (F1 hybrid maize plants): 15.0; average injury rating, V4 Growth Stage, 16x 2,4-D (F1 hybrid maize plants; listed as MON-HT2 (no CTP)): 21.3; average injury rating, V8 Growth Stage, 16x 2,4-D (F1 hybrid maize plants; listed as MON-HT2 (no CTP)): 25.0; injury rating after 2,4-D application at V4 growth stage at 8× (F1 hybrid maize plants; without the CTP): 13.75%; injury rating after 2,4-D application at V4 growth stage at 16× (F1 hybrid maize plants; without the CTP): 21.25%
